# Laboratory results published in the supplement of paper PMC11908140.
# B1: library; numbered along this chain (parent)
# chain: MRKPRAAVGSGHRKQAASQEGRQKHAKNNSQAKPSACDGLARQPEEVVLQASVSSYHLFRDVAEVTAFRGSLLSWYDQEKRDLPWRRRAEDEMDLDRRAYAVWVSEVMLQQTQVATVINYYTGWMQKWPTLQDLASASLEEVNQLWAGLGYYSRGRRLQEGARKVVEELGGHMPRTAETLQQLLPGVGRYTAGAIASIAFGQATGVVDGNVARVLCRVRAIGADPSSTLVSQQLWGLAQQLVDPARPGDFNQAAMELGATVCTPQRPLCSQCPVESLCRARQRVEQEQLLASGSLSGSPDVEECAPNTGQCHLCLPPSEPWDQTLGVVNFPRKASRKPPREESSATCVLEQPGALGAQILLVQRPNSGLLAGLWEFPSVTWEPSEQLQRKALLQELQRWAGPLPATHLRHLGEVVHTFSHIKLTYQVYGLALEGQTPVTTVPPGARWLTQEEFHTAAVSTAMKKVFRVYQGQQPGTCMGSKRSQVSSPCSRKKPRMGQQVLDNFFRSHISTDAHSLNSAAQ
# Variants of: B1
# Assay: 8OG:A repair function score (normalized; synonymous = 0, nonsense = -1) (normalized log-likelihood score); higher = more repair activity (WT-like)
# Conditions: with 8OG:A DNA repair reporter (GFP) in HEK-293 MUTYH KO cells
# In short: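 With 10 pg/ml doxycycline, MUTYH knockout HEK-293 cells carrying lentiviral MUTYH cDNA NNN codon-scan libraries were co-transfected with mCherry and an 8OG:A GFP repair reporter. Viable mCherry+ cells were sorted into GFP+ (repair) and GFP− bins at 72 h, three replicates per tile, and tile amplicons were sequenced. Per-tile Rosace fitness scores were then normalized into a repair function score anchored on synonymous and nonsense distributions. Medians were fixed at 0 for synonymous and -1 for nonsense, excluding variants under 300 counts per million at the start.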
row,Variant,8OG:A repair function score
1,F376L,-0.608
2,S507L,-0.0301
3,H407N,0.205
4,P44E,-0.0552
5,P44Y,-0.212
6,S231R,0.201
7,S231V,-0.0155
8,L95D,0.00648
9,M125I,-0.0973
10,M125C,-0.306
11,Q288G,-0.0129
12,S296W,0.0254
13,N517K,-0.077
14,P494W,-0.0155
15,M255W,-1.04
16,M255G,-1.02
17,N119W,-0.704
18,L109R,-1.05
19,V165N,-1.08
20,A445S,-0.0458
21,T460V,-0.029
22,T460D,-0.312
23,T460L,-0.235
24,T460N,-0.00346

row,Variant,8OG:A repair function score
1,R281T,-0.16
2,D208V,-0.996
3,R364V,-0.616
4,S335W,-0.0943
5,E64S,-0.158
6,R266D,-0.269
7,L423G,0.0807
8,E106P,-1.62
9,L325N,-0.136
10,D322M,0.0738
11,P437K,-0.15
12,S298C,-0.0366
13,V327S,-0.274
14,D300M,-0.0873
15,Q233G,-0.0523
16,N329R,-0.0858
17,N329C,-0.102
18,L392T,-0.777
19,V427C,-0.195
20,A196E,-0.674
21,R336T,-0.118
22,D82K,-0.079
23,G412K,-0.396
24,G412N,-0.34

row,Variant,8OG:A repair function score
1,R154Q,-1.06
2,L289K,-0.0314
3,G248P,-0.995
4,L234C,-0.521
5,P339H,0.0544
6,P339K,-0.0247
7,R42A,0.112
8,R42Y,0.0172
9,R246K,-0.495
10,R246V,-0.732
11,Q286E,-0.0273
12,Q286M,-0.0133
13,C269I,-1.26
14,C269R,-1.15
15,L158I,-0.11
16,L229S,0.0557
17,L229F,-0.0261
18,V465G,-0.801
19,N210F,-1
20,P377C,-0.633
21,C272G,-1.24
22,N503Q,0.0112
23,Q240C,-1.01
24,Q240L,-0.948

row,Variant,8OG:A repair function score
1,S52H,-0.0255
2,P320R,-0.0447
3,P320T,-0.0175
4,Q252M,-0.854
5,A137V,-0.325
6,E350F,-0.339
7,T112G,-0.908
8,F59D,-0.583
9,S378Y,-0.26
10,A212K,-0.0378
11,A212M,-0.344
12,A212G,-0.254
13,A212Q,-0.0874
14,G297L,-0.000773
15,G297N,-0.00835
16,G326F,-0.812
17,L40I,-0.0464
18,C262T,-1.19
19,A280L,-0.262
20,A280E,-0.713
21,A280W,-0.57
22,A280K,-0.812
23,T476M,-0.0533
24,A238V,0.0238

row,Variant,8OG:A repair function score
1,Q202D,0.0238
2,W85I,-0.792
3,I118D,-0.182
4,K127Q,-0.208
5,K127R,0.014
6,D94H,-0.136
7,D94M,-0.104
8,F418P,-0.719
9,E285Q,-0.00364
10,E413S,0.169
11,E90M,0.0018
12,F250P,-1.03
13,F250N,-0.903
14,E452S,-0.0485
15,N307S,-0.00118
16,T228A,0.0743
17,L393V,-0.37
18,T122R,-0.0157
19,Q182P,-0.18
20,E319N,-0.0746
21,G309I,-0.145
22,Q386A,0.0488
23,W75K,-1.2
24,K390D,0.0762

row,Variant,8OG:A repair function score
1,K390I,-0.265
2,Q470W,-0.0772
3,Q470L,0.00494
4,Q470Y,-0.0671
5,Q470F,-0.0175
6,L183N,-0.102
7,E141G,-0.256
8,R213Y,-0.997
9,G236I,0.00703
10,A194T,-0.422
11,G193H,-0.0997
12,A67F,-0.0807
13,Q435S,0.261
14,S490I,-0.0509
15,V117P,-1.02
16,W124Q,-0.557
17,F200K,-0.874
18,F200I,-0.505
19,F200T,-0.739
20,K422C,-0.221
21,A36C,0.066
22,Q310E,-0.0263
23,W128Y,-0.0875
24,R495D,0.0213

row,Variant,8OG:A repair function score
1,W103C,-0.655
2,E178K,0.0383
3,R163N,-0.164
4,L169Q,-0.00403
5,M496F,0.0105
6,M496Q,-0.106
7,G368M,-0.799
8,K493R,-0.00709
9,L387M,0.0425
10,Q388W,-0.0946
11,Q388L,0.511
12,D91N,-0.0978
13,D91M,0.00436
14,N251P,-1.02
15,N251K,-0.983
16,L139H,0.1
17,Q239E,-0.065
18,Q239R,-0.232
19,T439Y,-0.104
20,T439V,0.0472
21,Q363S,-0.169
22,Q363Y,-0.408
23,Q363E,-0.341
